Patent publication US9378557B2, “Microfluidic device for assessing object/test material interactions” (Dublin City University, priority 2008, dated 2016)

Tested on: platelets
Test: Shear-activated platelet translocation on von Willebrand Factor in the microfluidic device (blood perfusion assay, platelet tracking software)
Type: cell-based
Details: whole blood treated with ReoPro 20 μg/ml for 20 minutes; vWF-coated test area; arterial shear rate 1500 s-1; compared to normal untreated platelets (FIG. 13)
Source text: The microfluidic device was used to measure the shear-activated response of platelets in the presence of von Willebrand Factor (vWF). In particular, the effect of platelet specific GPIIb-IIIa antagonist (abciximab, ReoPro) on platelet function was examined. Abciximab (trade name ReoPro, distributed by Eli Lilly) is a platelet aggregation inhibitor used mainly during and after coronary artery procedures to prevent platelets from sticking together, by platelet GPIIb-IIIa-mediated aggregation, and subsequent thrombus formation.
Blood Draw: Blood was obtained from volunteers by venopuncture using a 19-g needle attached to a polypropylene syringe containing anticoagulant solution. […]
Matrix deposition on microfluidic device: The components of the flow cells were assembled using a jig to ensure patterned psa layers are aligned. […] Using silastic laboratory tubing, von Willebrand Factor solution (˜100 ug/ml protein solution in Phosphate Buffered Saline solution (PBS) was injected to fill the flow cell. The platform was then left to sit for 2 hours to immobilise the vWF on the glass base. (The flow cells were blocked with 1% BSA solution (in PBS) for 1 hour at room temperature). Deposition of von Willebrand Factor was by coating through adsorption. The platforms were rinsed with PBS solution and were then ready for perfusion assays. […]

B1: abciximab (antibody, chains of the INN, looked up, V domains shown)
VH: EVQLQQSGTVLARPGASVKMSCEASGYTFTNYWMHWVKQRPGQGLEWIGAIYPGNSDTSYIQKFKGKAKLTAVTSTTSVYMELSSLTNEDSAVYYCTLYDGYYVFAYWGQGTLVTVSA
VL: EIVLTQSPVTLSVTPGDSVSLSCRASRDISNNLHWFQQTSHESPRLLIKYASQSMSGIPSRFSGSGSGTDFTLSINSVETEDFGMYFCQQTNSWPYTFGGGTKLEIK
modifications: Fab
notes: platelet specific GPIIb-IIIa antagonist
For B1, the average velocity was “increased” and the escape percentage was “increased”.
